Results reported in patent US20130326725.

Assays:
Assay in all cases: cell_activity
[1] = system: ZFN 107830R (28492) (synthetic construct); settings: as pair 107830L/R (pKG7479); tomato protoplasts, 48 h; also active in yeast assay
[2] = system: ZFN 107830L (28491) (synthetic construct); settings: as pair 107830L/R (pKG7479); tomato protoplasts, 48 h; also active in yeast assay
[3] = system: ZFN 107832R (28536) (synthetic construct); settings: as pair 107832L/R (pKG7480); tomato protoplasts, 48 h; also active in yeast assay
[4] = system: ZFN 107832L (28535) (synthetic construct); settings: as pair 107832L/R (pKG7480); tomato protoplasts, 48 h; also active in yeast assay
[5] = system: ZFN 107835L (28563) (synthetic construct); settings: as pair 107835L/R (pKG7482); tomato protoplasts, 48 h; also active in yeast assay
[6] = system: ZFN 107835R (28564) (synthetic construct); settings: as pair 107835L/R (pKG7482); tomato protoplasts, 48 h; also active in yeast assay
[7] = system: ZFN 107833L (28549) (synthetic construct); settings: as pair 107833L/R (pKG7481); tomato protoplasts, 48 h; also active in yeast assay
[8] = system: ZFN 107833R (28550) (synthetic construct); settings: as pair 107833L/R (pKG7481); tomato protoplasts, 48 h; also active in yeast assay

## AGCATCCTATGTATCTCGCCGTGGATTCGCATCGGGATCCG (double strand) [107830R target]
[1]
  activity (% indel clones): 4.1

## CGGATCCCGATGCGAATCCACGGCGAGATACATAGGATGCT (double strand) [107830L target]
[2]
  activity (% indel clones): 4.1

## CTCTTTGGAGTTACCATGCTTGATGTGGTTAGGGCCAAG (double strand) [107832R target]
[3]
  activity (% indel clones): 5.5

## CTTGGCCCTAACCACATCAAGCATGGTAACTCCAAAGAG (double strand) [107832L target]
[4]
  activity (% indel clones): 5.5

## GGCTTATTACCTTGGATGCGAAGAAGGGAAGCTCGGTGAC (double strand) [107835L target]
[5]
  activity (% indel clones): 0.7

## GTCACCGAGCTTCCCTTCTTCGCATCCAAGGTAATAAGCC (double strand) [107835R target]
[6]
  activity (% indel clones): 0.7

## GTTATGCCAGCATGACCACCAACTACTGGGAGATTGACCTCTGAA (double strand) [107833L target]
[7]
  activity (% indel clones): 2

## TTCAGAGGTCAATCTCCCAGTAGTTGGTGGTCATGCTGGCATAAC (double strand) [107833R target]
[8]
  activity (% indel clones): 2
